Patent US20180009871A1 (INTARCIA THERAPEUTICS, published 2018)
Where no end group is shown, it is not given here. [ ]: non-standard residue; d: D form. Aib = CC(C)(N)C(=O)O

B1: Compound A28 (peptide)
peptide: YSHGTFTSDYSKYLD[Aib]KRAQEFV[Aib]WLEDEGPSSGAPPPS-OH
modifications: N-terminus assumed
SMILES: CC(C)C[C@H](NC(=O)[C@H](Cc1ccc(O)cc1)NC(=O)[C@H](CCCCN)NC(=O)[C@H](CO)NC(=O)[C@H](Cc1ccc(O)cc1)NC(=O)[C@H](CC(=O)O)NC(=O)[C@H](CO)NC(=O)[C@@H](NC(=O)[C@H](Cc1ccccc1)NC(=O)[C@@H](NC(=O)CNC(=O)[C@H](Cc1c[nH]cn1)NC(=O)[C@H](CO)NC(=O)[C@@H](N)Cc1ccc(O)cc1)[C@@H](C)O)[C@@H](C)O)C(=O)N[C@@H](CC(=O)O)C(=O)NC(C)(C)C(=O)N[C@@H](CCCCN)C(=O)N[C@@H](CCCNC(=N)N)C(=O)N[C@@H](C)C(=O)N[C@@H](CCC(N)=O)C(=O)N[C@@H](CCC(=O)O)C(=O)N[C@@H](Cc1ccccc1)C(=O)N[C@H](C(=O)NC(C)(C)C(=O)N[C@@H](Cc1c[nH]c2ccccc12)C(=O)N[C@@H](CC(C)C)C(=O)N[C@@H](CCC(=O)O)C(=O)N[C@@H](CC(=O)O)C(=O)N[C@@H](CCC(=O)O)C(=O)NCC(=O)N1CCC[C@H]1C(=O)N[C@@H](CO)C(=O)N[C@@H](CO)C(=O)NCC(=O)N[C@@H](C)C(=O)N1CCC[C@H]1C(=O)N1CCC[C@H]1C(=O)N1CCC[C@H]1C(=O)N[C@@H](CO)C(=O)O)C(C)C
B2: Compound A29 (peptide)
peptide: YSHGTFTSDYSKYLD[Aib]KRAQEFV[Aib]WLEDEPKSGAPPPS-OH
modifications: N-terminus assumed
SMILES: CC(C)C[C@H](NC(=O)[C@H](Cc1ccc(O)cc1)NC(=O)[C@H](CCCCN)NC(=O)[C@H](CO)NC(=O)[C@H](Cc1ccc(O)cc1)NC(=O)[C@H](CC(=O)O)NC(=O)[C@H](CO)NC(=O)[C@@H](NC(=O)[C@H](Cc1ccccc1)NC(=O)[C@@H](NC(=O)CNC(=O)[C@H](Cc1c[nH]cn1)NC(=O)[C@H](CO)NC(=O)[C@@H](N)Cc1ccc(O)cc1)[C@@H](C)O)[C@@H](C)O)C(=O)N[C@@H](CC(=O)O)C(=O)NC(C)(C)C(=O)N[C@@H](CCCCN)C(=O)N[C@@H](CCCNC(=N)N)C(=O)N[C@@H](C)C(=O)N[C@@H](CCC(N)=O)C(=O)N[C@@H](CCC(=O)O)C(=O)N[C@@H](Cc1ccccc1)C(=O)N[C@H](C(=O)NC(C)(C)C(=O)N[C@@H](Cc1c[nH]c2ccccc12)C(=O)N[C@@H](CC(C)C)C(=O)N[C@@H](CCC(=O)O)C(=O)N[C@@H](CC(=O)O)C(=O)N[C@@H](CCC(=O)O)C(=O)N1CCC[C@H]1C(=O)N[C@@H](CCCCN)C(=O)N[C@@H](CO)C(=O)NCC(=O)N[C@@H](C)C(=O)N1CCC[C@H]1C(=O)N1CCC[C@H]1C(=O)N1CCC[C@H]1C(=O)N[C@@H](CO)C(=O)O)C(C)C
B3: Compound A30 (peptide)
peptide: YSHGTFTSDYSKYLD[Aib]KRAQEFV[Aib]WLEDEPSKGAPPPS-OH
modifications: N-terminus assumed
SMILES: CC(C)C[C@H](NC(=O)[C@H](Cc1ccc(O)cc1)NC(=O)[C@H](CCCCN)NC(=O)[C@H](CO)NC(=O)[C@H](Cc1ccc(O)cc1)NC(=O)[C@H](CC(=O)O)NC(=O)[C@H](CO)NC(=O)[C@@H](NC(=O)[C@H](Cc1ccccc1)NC(=O)[C@@H](NC(=O)CNC(=O)[C@H](Cc1c[nH]cn1)NC(=O)[C@H](CO)NC(=O)[C@@H](N)Cc1ccc(O)cc1)[C@@H](C)O)[C@@H](C)O)C(=O)N[C@@H](CC(=O)O)C(=O)NC(C)(C)C(=O)N[C@@H](CCCCN)C(=O)N[C@@H](CCCNC(=N)N)C(=O)N[C@@H](C)C(=O)N[C@@H](CCC(N)=O)C(=O)N[C@@H](CCC(=O)O)C(=O)N[C@@H](Cc1ccccc1)C(=O)N[C@H](C(=O)NC(C)(C)C(=O)N[C@@H](Cc1c[nH]c2ccccc12)C(=O)N[C@@H](CC(C)C)C(=O)N[C@@H](CCC(=O)O)C(=O)N[C@@H](CC(=O)O)C(=O)N[C@@H](CCC(=O)O)C(=O)N1CCC[C@H]1C(=O)N[C@@H](CO)C(=O)N[C@@H](CCCCN)C(=O)NCC(=O)N[C@@H](C)C(=O)N1CCC[C@H]1C(=O)N1CCC[C@H]1C(=O)N1CCC[C@H]1C(=O)N[C@@H](CO)C(=O)O)C(C)C

What follows are binders tested against human GLP-1 receptor (GLP-1R) (human, UniProt P43220 24-463) (assay: cell-based or functional assay).
Chain of human GLP-1 receptor (GLP-1R) (P43220 24-463): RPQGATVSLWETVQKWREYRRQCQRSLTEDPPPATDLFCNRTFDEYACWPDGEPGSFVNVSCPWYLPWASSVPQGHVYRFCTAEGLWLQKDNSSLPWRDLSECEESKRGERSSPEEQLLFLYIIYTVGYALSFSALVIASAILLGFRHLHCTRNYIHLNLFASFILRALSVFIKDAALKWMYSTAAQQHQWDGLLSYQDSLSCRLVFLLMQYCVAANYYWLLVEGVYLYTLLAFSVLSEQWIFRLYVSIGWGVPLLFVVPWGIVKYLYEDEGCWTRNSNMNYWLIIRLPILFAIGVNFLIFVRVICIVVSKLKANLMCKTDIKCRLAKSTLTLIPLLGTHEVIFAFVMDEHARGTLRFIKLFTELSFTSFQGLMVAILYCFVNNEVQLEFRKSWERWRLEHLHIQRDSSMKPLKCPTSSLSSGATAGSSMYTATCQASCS
In the case of B1, the “hGLP1 pEC50 (cAMP)” value is reported as < 9 pEC50. In the case of B2, the “hGLP1 pEC50 (cAMP)” value is reported as < 9 pEC50. For B3, the “hGLP1 pEC50 (cAMP)” value was < 9 pEC50.

What follows are binders tested against human glucagon receptor (GCGR) (human, UniProt P47871 26-477) (assay: cell-based or functional assay).
B1 was tested, and the “hGCGR pEC50 (cAMP)” value was 12.2 pEC50. With B2 the “hGCGR pEC50 (cAMP)” value was 11.1 pEC50. For B3, the “hGCGR pEC50 (cAMP)” value was 10.9 pEC50.
